Substitutions are numbered along the chain they refer to.
Key:
Test in all cases: scFv ELISA
BSA = BSA (UniProt P02769)
[1] = target: Peptide 1: Biotin-…-[Tyr(PC)]-acid
[2] = target: Peptide 5: Biotin-…-[Tyr(PC)]-acid
[3] = target: T1, Peptide 4: Biotin-AGGGGSGGGGSGGGGSAAA-Tyr-acid (N-terminal biotin; C-terminal acid)
T1 construct: control peptide without PC
T1 peptide: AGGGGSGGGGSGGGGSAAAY
Procedure, shortened: (§1)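 Bound scFv was read as OD450 after HRP–anti-V5 detection, TMB development and HCl stop. PPE with BSA was incubated 1 h at RT on BSA-blocked wells coated overnight at 4° C. with peptide, or on streptavidin wells loaded 1 h with biotinylated PC-peptides at 1 μg/mL.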

[4] = target: T2, Peptide 8: Biotin-AEAAAKEAAAKEAAAKEAAAKAAA-Tyr-acid (N-terminal biotin; C-terminal acid)
T2 construct: control peptide without PC
T2 peptide: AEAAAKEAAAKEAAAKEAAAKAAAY
Procedure, shortened: as §1

BSA, sequence (P02769 25-607 limits assumed): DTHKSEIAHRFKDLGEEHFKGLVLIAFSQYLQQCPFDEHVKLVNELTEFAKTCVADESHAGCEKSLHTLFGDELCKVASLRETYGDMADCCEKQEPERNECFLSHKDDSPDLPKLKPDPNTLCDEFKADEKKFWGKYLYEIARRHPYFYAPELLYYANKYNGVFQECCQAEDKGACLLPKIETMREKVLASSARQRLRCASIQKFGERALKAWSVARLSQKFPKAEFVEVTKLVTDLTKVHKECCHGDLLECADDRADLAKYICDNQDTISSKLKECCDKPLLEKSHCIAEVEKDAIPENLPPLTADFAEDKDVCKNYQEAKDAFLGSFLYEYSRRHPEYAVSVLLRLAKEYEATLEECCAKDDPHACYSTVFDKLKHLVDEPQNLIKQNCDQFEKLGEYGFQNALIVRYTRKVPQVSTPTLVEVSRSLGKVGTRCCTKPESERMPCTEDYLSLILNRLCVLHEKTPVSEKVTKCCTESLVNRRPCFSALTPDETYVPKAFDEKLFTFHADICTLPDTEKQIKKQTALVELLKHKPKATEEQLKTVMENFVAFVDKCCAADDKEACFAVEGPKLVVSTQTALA

B1: PcOxP_DB03_A08 (scFv, V domains shown)
VH: EVQLLESGGGLVQPGGSLRLSCAASGFTFSDVYMEWVRQAPGKGLEWVAASRNKANDYTTEYADSVKGRFTISRDNSKNTLYLQMNSLRAEDTAVYYCARDYYGSSYWYFDVWGQGTLVTVSS
VL: DIQMTQSPSSLSASVGDRVTITCTASESLYSSKHKVHYLAWYQQKPGKAPKLLIYGASNRYIGVPSRFSGSGSGTDFTLTISSLQPEDFATYYCAQFYSYPLTFGGGTKVEIK
notes: scFv in periplasmic extract
OD450 (BSA): 0.11 OD450
OD450 [1]: 0.67 OD450
OD450 [2]: 0.71 OD450
OD450 [3]: 0.06 OD450
OD450 [4]: 0.05 OD450

B2: PcOxP_DB03_E01 (scFv, V domains shown)
VH: B1 VH with V32Y, T60V
VL: B1 VL with A57T, S99E
notes: scFv in periplasmic extract
OD450 (BSA): 0.09 OD450
OD450 [1]: 2.5 OD450
OD450 [2]: 2.11 OD450
OD450 [3]: 0.06 OD450
OD450 [4]: 0.06 OD450

B3: PcOxP_DB03_B02 (scFv, V domains shown)
VH: B1 VH with T28A, V32F
VL: B1 VL with I62D, S99E
notes: scFv in periplasmic extract
OD450 (BSA): 0.07 OD450
OD450 [1]: 2.02 OD450
OD450 [2]: 1.64 OD450
OD450 [3]: 0.05 OD450
OD450 [4]: 0.05 OD450

B4: PcOxP_DB03_C03 (scFv, V domains shown)
VH: B1 VH with V32F, A55Y
VL: B1 VL
notes: scFv in periplasmic extract
OD450 (BSA): 0.09 OD450
OD450 [1]: 1.36 OD450
OD450 [2]: 1.66 OD450
OD450 [3]: 0.05 OD450
OD450 [4]: 0.05 OD450

B5: PcOxP_DB03_E09 (scFv, V domains shown)
VH: B1 VH with F29A, V32F, Y58Q, V112S
VL: B1 VL with Y61Q, I62S
notes: scFv in periplasmic extract
OD450 (BSA): 0.08 OD450
OD450 [1]: 0.39 OD450
OD450 [2]: 0.72 OD450
OD450 [3]: 0.05 OD450
OD450 [4]: 0.05 OD450

B6: PcOxP_DB03_D07 (scFv, V domains shown)
VH: B1 VH
VL: B1 VL with I62S, S99K
notes: scFv in periplasmic extract
OD450 (BSA): 0.12 OD450
OD450 [1]: 0.75 OD450
OD450 [2]: 0.95 OD450
OD450 [3]: 0.06 OD450
OD450 [4]: 0.05 OD450

B7: PcOxP_DB03_A11 (scFv, V domains shown)
VH: B1 VH with D31S, V32Y, K54Q, F110L
VL: B1 VL with S58D, S99H
notes: scFv in periplasmic extract
OD450 (BSA): 0.08 OD450
OD450 [1]: 1.12 OD450
OD450 [2]: 1.08 OD450
OD450 [3]: 0.05 OD450
OD450 [4]: 0.05 OD450

B8: PcOxP_DB03_C06 (scFv, V domains shown)
VH: B1 VH with F27A, V32F, K54G, S105N
VL: B1 VL with Y61Q, I62S, S99V
notes: scFv in periplasmic extract
OD450 (BSA): 0.07 OD450
OD450 [1]: 0.64 OD450
OD450 [2]: 0.61 OD450
OD450 [3]: 0.05 OD450
OD450 [4]: 0.05 OD450

B9: PcOxP_DB03_C11 (scFv, V domains shown)
VH: B1 VH with T28D, V32F, E61D, Y103F
VL: B1 VL with I62Q, S99F
notes: scFv in periplasmic extract
OD450 (BSA): 0.07 OD450
OD450 [1]: 1.14 OD450
OD450 [2]: 0.75 OD450
OD450 [3]: 0.05 OD450
OD450 [4]: 0.04 OD450

B10: PcOxP_DB02_H03 (scFv, V domains shown)
VH: B1 VH with V32F
VL: B1 VL with L29I, Y30S, R60L, I62S, Q96H
notes: scFv in periplasmic extract
OD450 (BSA): 0.08 OD450
OD450 [1]: 0.27 OD450
OD450 [2]: 0.82 OD450
OD450 [3]: 0.05 OD450
OD450 [4]: 0.05 OD450

B11: PcOxP_DB02_G06 (scFv, V domains shown)
VH: B1 VH with D31S, V32Y, K54Q, S106P
VL: B1 VL with A57V
notes: scFv in periplasmic extract
OD450 (BSA): 0.08 OD450
OD450 [1]: 0.43 OD450
OD450 [2]: 0.87 OD450
OD450 [3]: 0.06 OD450
OD450 [4]: 0.05 OD450

B12: PcOxP_DB03_E07 (scFv, V domains shown)
VH: B1 VH with V32N, T60N
VL: B1 VL
notes: scFv in periplasmic extract
OD450 (BSA): 0.08 OD450
OD450 [1]: 0.78 OD450
OD450 [2]: 0.86 OD450
OD450 [3]: 0.05 OD450
OD450 [4]: 0.05 OD450

B13: PcOxP_DB03_D11 (scFv, V domains shown)
VH: B1 VH with V32F, S105H
VL: B1 VL with N59S, S99E
notes: scFv in periplasmic extract
OD450 (BSA): 0.08 OD450
OD450 [1]: 0.5 OD450
OD450 [2]: 0.66 OD450
OD450 [3]: 0.06 OD450
OD450 [4]: 0.05 OD450

B14: PcOxP_DB03_G03 (scFv, V domains shown)
VH: B1 VH with F29S, V32F
VL: B1 VL with E27Q, L29I, Y30S, R60H
notes: scFv in periplasmic extract
OD450 (BSA): 0.08 OD450
OD450 [1]: 1.57 OD450
OD450 [2]: 1.8 OD450
OD450 [3]: 0.05 OD450
OD450 [4]: 0.08 OD450

B15: PcOxP_DB03_G02 (scFv, V domains shown)
VH: B1 VH with V32G, M34I
VL: B1 VL with S28E
notes: scFv in periplasmic extract
OD450 (BSA): 0.07 OD450
OD450 [1]: 1.33 OD450
OD450 [2]: 1.59 OD450
OD450 [3]: 0.04 OD450
OD450 [4]: 0.05 OD450

Reference: patent US20250320312A1 (OXITOPE PHARMA B V, published 2025)
